# Results: the Human Domainome abundance scans (Beltran et al. 2025)
# ± gives the uncertainty stated by the source.
# B1: Zinc finger protein ZIC 2, residues 250 to 295; numbered along this chain, O95409 (parent)
# chain: QCIKQELICKWIDPEQLSNPKKSCNKTFSTMHELVTHVSVEHVGGP
# Variants of: B1
# Test: abundance fitness (aPCA) (normalised: wild type 0, dead -1); higher = more abundant; growth selection in yeast, the domain comes from the species named
# Conditions: Homo sapiens
row,Variant,abundance fitness
1,QCIKQELICKWIDPEQLSNPKKPCNKTFSTMHELVTHVSVEHVGGP [S23P],0.043 ± 0.11
2,QCIKQELICKWIDPEQLSNPKKFCNKTFSTMHELVTHVSVEHVGGP [S23F],0.14 ± 0.13
3,QCIKQELICKWKDPEQLSNPKKSCNKTFSTMHELVTHVSVEHVGGP [I12K],-0.085 ± 0.13
4,QCIKQELICKWCDPEQLSNPKKSCNKTFSTMHELVTHVSVEHVGGP [I12C],0.013 ± 0.1
5,QCIKQELICKWLDPEQLSNPKKSCNKTFSTMHELVTHVSVEHVGGP [I12L],-0.551 ± 0.097
6,QCIKQELICKWHDPEQLSNPKKSCNKTFSTMHELVTHVSVEHVGGP [I12H],0.098 ± 0.14
7,QCIKQELICKWIDPEQCSNPKKSCNKTFSTMHELVTHVSVEHVGGP [L17C],-0.245 ± 0.12
8,QCIKQELICKWIDPEQWSNPKKSCNKTFSTMHELVTHVSVEHVGGP [L17W],-0.623 ± 0.093
9,QCIKQELICKWIDPEQHSNPKKSCNKTFSTMHELVTHVSVEHVGGP [L17H],-0.662 ± 0.15
10,QCIKVELICKWIDPEQLSNPKKSCNKTFSTMHELVTHVSVEHVGGP [Q5V],-0.779 ± 0.11
11,QCIKNELICKWIDPEQLSNPKKSCNKTFSTMHELVTHVSVEHVGGP [Q5N],0.018 ± 0.093
12,QCIKQELICKWIDPEQLSNPKKSCNKTFSSMHELVTHVSVEHVGGP [T30S],-0.273 ± 0.096
13,QCIKQELICKWIDPEQLSNPKKSCNKTWSTMHELVTHVSVEHVGGP [F28W],-0.968 ± 0.1
14,QCIKQELICKWIDPEQLSNPKKSCNKTHSTMHELVTHVSVEHVGGP [F28H],-1.04 ± 0.15
15,QCIKQELICKWIDPEQLSNPKKSCNKTDSTMHELVTHVSVEHVGGP [F28D],-0.914 ± 0.15
16,QCIKQELICKWIDPEQLSNPKKSCNKTFSTMHELVMHVSVEHVGGP [T36M],-0.341 ± 0.1
17,QCIKQELICKWIDPEQLSNPKKSCNKTFSTMHELVTHVSVEHVGGA [P46A],-0.578 ± 0.24
18,QCIKQELICKHIDPEQLSNPKKSCNKTFSTMHELVTHVSVEHVGGP [W11H],0.002 ± 0.12
19,QCIKQELICKQIDPEQLSNPKKSCNKTFSTMHELVTHVSVEHVGGP [W11Q],0.241 ± 0.11
20,QCIKQELICKWIDPEQLSNPKKSCNKTFSTMHELSTHVSVEHVGGP [V35S],0.5 ± 0.086
21,QCIKQELICKWIDPEQLSNPKKSCNKTFVTMHELVTHVSVEHVGGP [S29V],-0.167 ± 0.091
22,QCIKQELICKWIDPEQLSNPKKSCNKTFSTMHELVTEVSVEHVGGP [H37E],-0.611 ± 0.15
23,QCIKQELICKWIDPEQLSNPKKSRNKTFSTMHELVTHVSVEHVGGP [C24R],-0.841 ± 0.093
24,QCIKQELICKWIDPEQLSNPKKSCNKTFSTMHELVTHVNVEHVGGP [S39N],-0.007 ± 0.11
25,QCIKQELICKWIDPEQLSNPKKSCNKTFSTMHELVTHVGVEHVGGP [S39G],-0.019 ± 0.086
26,GCIKQELICKWIDPEQLSNPKKSCNKTFSTMHELVTHVSVEHVGGP [Q1G],-0.22 ± 0.12
27,QCIKQEAICKWIDPEQLSNPKKSCNKTFSTMHELVTHVSVEHVGGP [L7A],0.097 ± 0.09

row,Variant,abundance fitness
1,QCIKQELICKWIDPEVLSNPKKSCNKTFSTMHELVTHVSVEHVGGP [Q16V],-0.302 ± 0.091
2,QCIKQELICKWIDPEYLSNPKKSCNKTFSTMHELVTHVSVEHVGGP [Q16Y],-0.211 ± 0.12
3,QCIKQELICKWIDPECLSNPKKSCNKTFSTMHELVTHVSVEHVGGP [Q16C],-0.014 ± 0.11
4,QCIKQELICKWIDPESLSNPKKSCNKTFSTMHELVTHVSVEHVGGP [Q16S],0.073 ± 0.09
5,QCIKQELICKWIDPEQLSNPKKSCNKTFSTMHMLVTHVSVEHVGGP [E33M],-0.751 ± 0.11
6,QCIKQELICKWIDPEQLSNNKKSCNKTFSTMHELVTHVSVEHVGGP [P20N],-0.121 ± 0.12
7,QCIKQELICKWIEPEQLSNPKKSCNKTFSTMHELVTHVSVEHVGGP [D13E],-0.235 ± 0.094
8,QCIKQELICKWITPEQLSNPKKSCNKTFSTMHELVTHVSVEHVGGP [D13T],-0.81 ± 0.13
9,QCINQELICKWIDPEQLSNPKKSCNKTFSTMHELVTHVSVEHVGGP [K4N],-0.085 ± 0.13
10,QDIKQELICKWIDPEQLSNPKKSCNKTFSTMHELVTHVSVEHVGGP [C2D],0.108 ± 0.13
11,QIIKQELICKWIDPEQLSNPKKSCNKTFSTMHELVTHVSVEHVGGP [C2I],0.605 ± 0.12
12,QCIKQELICKWIDPEQLSNPKKSCGKTFSTMHELVTHVSVEHVGGP [N25G],0.3 ± 0.084
13,QCIKQELICTWIDPEQLSNPKKSCNKTFSTMHELVTHVSVEHVGGP [K10T],0.33 ± 0.098
14,QCIKQELICKWIDPEQLSNPKKSCNKTFSTMHELVTHVSVKHVGGP [E41K],-0.269 ± 0.11
15,QCIKQELICKWIDPEQLSNPKKSCNKTFSTMHELVTHVSVWHVGGP [E41W],-0.387 ± 0.1
16,QCIKQELICKWIDNEQLSNPKKSCNKTFSTMHELVTHVSVEHVGGP [P14N],-0.123 ± 0.13
17,QCIKQELICKWIDDEQLSNPKKSCNKTFSTMHELVTHVSVEHVGGP [P14D],-0.65 ± 0.13
18,QCIKQELICKWIDPEQLKNPKKSCNKTFSTMHELVTHVSVEHVGGP [S18K],0.282 ± 0.11
19,QCIKQELICKWIDPEQLVNPKKSCNKTFSTMHELVTHVSVEHVGGP [S18V],-0.485 ± 0.092
20,QCIKQELICKWIDPEQLHNPKKSCNKTFSTMHELVTHVSVEHVGGP [S18H],-0.389 ± 0.12
21,QCIKQELICKWIDPEQLENPKKSCNKTFSTMHELVTHVSVEHVGGP [S18E],-0.394 ± 0.11
22,QCIKQELICKWIDPEQLSNPKKSCNKTFSTMHELVTHVSKEHVGGP [V40K],-0.122 ± 0.1
23,QCIKQELICKWIDPEQLSNPKKSCNKTFSTMHELVTHVSFEHVGGP [V40F],-0.549 ± 0.11
24,QCIKQELICKWIDPEQLSNPKCSCNKTFSTMHELVTHVSVEHVGGP [K22C],-0.349 ± 0.11
25,QCIKQELICKWIDPEQLSAPKKSCNKTFSTMHELVTHVSVEHVGGP [N19A],-0.131 ± 0.091
26,QCIKQELICKWIDPEQLSNPKKSCNKTFSTMHELVTHVSVEHVTGP [G44T],-0.045 ± 0.091
27,QCIKQELIEKWIDPEQLSNPKKSCNKTFSTMHELVTHVSVEHVGGP [C9E],-0.578 ± 0.11
